According to article PMC7504130:

Biological target: PARP-1 (UniProt P09874)
Test: EMSA
Conditions: EMSA: 20 mM Tris-HCl pH 8, 30 mM KCl, 1.5 mM MgCl2, 1 mM DTT, 8% glycerol, 50 uM ZnAc, 2.5 ng/mL poly[dI-dC], 25 C, 50 nM DNA; pull-down: 20 mM Tris-HCl pH …

Sequence of PARP-1 (P09874 2-1014): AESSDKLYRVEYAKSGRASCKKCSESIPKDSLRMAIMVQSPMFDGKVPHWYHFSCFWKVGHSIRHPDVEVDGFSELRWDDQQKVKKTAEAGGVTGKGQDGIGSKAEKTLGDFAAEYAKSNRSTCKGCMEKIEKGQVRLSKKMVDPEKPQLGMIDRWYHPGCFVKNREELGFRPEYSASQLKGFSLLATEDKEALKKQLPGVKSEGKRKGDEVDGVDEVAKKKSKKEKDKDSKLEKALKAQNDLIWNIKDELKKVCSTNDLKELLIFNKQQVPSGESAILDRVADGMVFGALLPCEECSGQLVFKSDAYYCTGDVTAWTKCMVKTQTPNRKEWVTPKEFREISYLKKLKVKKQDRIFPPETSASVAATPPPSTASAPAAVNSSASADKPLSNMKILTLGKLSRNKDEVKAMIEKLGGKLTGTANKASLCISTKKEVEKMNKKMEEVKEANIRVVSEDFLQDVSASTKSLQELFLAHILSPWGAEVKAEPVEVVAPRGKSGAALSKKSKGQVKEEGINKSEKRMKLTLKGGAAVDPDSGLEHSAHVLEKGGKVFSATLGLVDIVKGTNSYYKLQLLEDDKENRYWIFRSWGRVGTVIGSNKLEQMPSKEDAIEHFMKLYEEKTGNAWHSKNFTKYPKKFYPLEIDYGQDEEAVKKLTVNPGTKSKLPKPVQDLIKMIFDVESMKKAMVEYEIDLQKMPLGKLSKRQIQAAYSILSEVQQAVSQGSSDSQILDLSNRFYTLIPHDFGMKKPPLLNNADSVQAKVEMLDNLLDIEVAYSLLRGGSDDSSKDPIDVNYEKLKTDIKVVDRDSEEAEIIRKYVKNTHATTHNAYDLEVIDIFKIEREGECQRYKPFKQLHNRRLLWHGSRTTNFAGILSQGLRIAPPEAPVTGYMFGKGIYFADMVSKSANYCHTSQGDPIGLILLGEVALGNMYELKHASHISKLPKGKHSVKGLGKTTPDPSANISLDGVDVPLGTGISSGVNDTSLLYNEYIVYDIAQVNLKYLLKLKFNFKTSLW

Row | Sequence | Kd [nM]
1 | AGGGCGGTGTGGGAAGAGGGAAGAGGGGGAGG [Cy5.5-32R (G4 32R)] | 200
2 | CGGGCCGGCGGGGGAGGAGCGGGGGCCGGGC [Cy5.5-mid2 (G4 mid2)] | 370
3 | CGGGGAGAAGGAGGGGGCCGGGCCGGGC [Cy5.5-mid1 (G4 mid1)] | 360
